Measurements reported in US20170174750A1.

Tests used:
[1] = target: endogenous Bcr-Abl of K562 cells (human leukemia Bcr-Abl+ cells; wild-type, unmutated) (human) (UniProt P11274)
[2] = target: p210 BCR-ABL1 T315I kinase domain mutant stably expressed in Ba/F3 cells (Homo sapiens (Human)) (UniProt P11274)
[3] = target: p210 BCR-ABL1 T315I kinase domain mutant stably expressed in Ba/F3 cells (Homo sapiens (Human)) (UniProt P11274); remark: listed apart in the source
[4] = target: p210 BCR-ABL1 E255V kinase domain mutant stably expressed in Ba/F3 cells (Homo sapiens (Human)) (UniProt P11274)
[5] = target: p210 Bcr-Abl (native, non-mutated) stably expressed in Ba/F3 cells (Homo sapiens (Human)) (UniProt P11274)
[6] = target: p210 BCR-ABL1 E255V/T315I compound mutant stably expressed in Ba/F3 cells (Homo sapiens (Human)) (UniProt P11274)

Binder | colony forming assay (transformative ability) of K562 cells (fold decrease) [1] | colony forming assay (transformative ability) of Ba/F3-p210-T315I cells [2] | cell proliferation (MTS assay) of Ba/F3 cells expressing BCR-ABL1 T315I (fold reduction) [3] | colony formation assay of Ba/F3 cells expressing BCR-ABL1 T315I (fold reduction) [3] | cell proliferation (MTS assay) of Ba/F3 cells expressing BCR-ABL1 E255V (fold reduction) [4] | colony formation assay of Ba/F3 cells expressing BCR-ABL1 E255V (fold reduction) [4] | apoptosis (Annexin V / 7-AAD, 72 h) of Ba/F3 cells expressing native BCR-ABL1 (fold increase) [5] | cell proliferation (MTS assay) of Ba/F3 cells expressing native BCR-ABL1 (fold reduction) [5] | colony formation assay of Ba/F3 cells expressing BCR-ABL1 E255V/T315I [6]
EGFP-CC^mut3 (expressed from pEGFP-CC^mut3) (designed binder) MVDPVGFAEAWKAQFPDSEPPRMELRSVGDIEQELERAEARIRRDEQRVNQERFRMIYLETLLAKEKKSYDR | 3 | 40% |  |  |  |  |  |  | 
mCherry-CC^mut3 fusion (expressed from pmCherry-CC^mut3) (designed binder) MVDPVGFAEAWKAQFPDSEPPRMELRSVGDIEQELERAEARIRRDEQRVNQERFRMIYLETLLAKEKKSYDR |  |  | 3 | > 10 | 3 | > 10 | 3 | > 2 | 50%
